Test results from patent US20130137748A1 (ONCOTHERAPY SCIENCE, published 2013).

T1: 3×FLAG-WHSC1 (Wolf-Hirschhorn syndrome candidate-1, FLAG-tagged) (human, UniProt O96028 1-1365)
T1 construct: Expressed in 293T cells by transfection; also called FLAG-tagged WHSC1; pCAGGS-n3FH-WHSC1; not shown: 3×FLAG tag from the pCAGGS-n3FH / n3FC vector
T1 sequence: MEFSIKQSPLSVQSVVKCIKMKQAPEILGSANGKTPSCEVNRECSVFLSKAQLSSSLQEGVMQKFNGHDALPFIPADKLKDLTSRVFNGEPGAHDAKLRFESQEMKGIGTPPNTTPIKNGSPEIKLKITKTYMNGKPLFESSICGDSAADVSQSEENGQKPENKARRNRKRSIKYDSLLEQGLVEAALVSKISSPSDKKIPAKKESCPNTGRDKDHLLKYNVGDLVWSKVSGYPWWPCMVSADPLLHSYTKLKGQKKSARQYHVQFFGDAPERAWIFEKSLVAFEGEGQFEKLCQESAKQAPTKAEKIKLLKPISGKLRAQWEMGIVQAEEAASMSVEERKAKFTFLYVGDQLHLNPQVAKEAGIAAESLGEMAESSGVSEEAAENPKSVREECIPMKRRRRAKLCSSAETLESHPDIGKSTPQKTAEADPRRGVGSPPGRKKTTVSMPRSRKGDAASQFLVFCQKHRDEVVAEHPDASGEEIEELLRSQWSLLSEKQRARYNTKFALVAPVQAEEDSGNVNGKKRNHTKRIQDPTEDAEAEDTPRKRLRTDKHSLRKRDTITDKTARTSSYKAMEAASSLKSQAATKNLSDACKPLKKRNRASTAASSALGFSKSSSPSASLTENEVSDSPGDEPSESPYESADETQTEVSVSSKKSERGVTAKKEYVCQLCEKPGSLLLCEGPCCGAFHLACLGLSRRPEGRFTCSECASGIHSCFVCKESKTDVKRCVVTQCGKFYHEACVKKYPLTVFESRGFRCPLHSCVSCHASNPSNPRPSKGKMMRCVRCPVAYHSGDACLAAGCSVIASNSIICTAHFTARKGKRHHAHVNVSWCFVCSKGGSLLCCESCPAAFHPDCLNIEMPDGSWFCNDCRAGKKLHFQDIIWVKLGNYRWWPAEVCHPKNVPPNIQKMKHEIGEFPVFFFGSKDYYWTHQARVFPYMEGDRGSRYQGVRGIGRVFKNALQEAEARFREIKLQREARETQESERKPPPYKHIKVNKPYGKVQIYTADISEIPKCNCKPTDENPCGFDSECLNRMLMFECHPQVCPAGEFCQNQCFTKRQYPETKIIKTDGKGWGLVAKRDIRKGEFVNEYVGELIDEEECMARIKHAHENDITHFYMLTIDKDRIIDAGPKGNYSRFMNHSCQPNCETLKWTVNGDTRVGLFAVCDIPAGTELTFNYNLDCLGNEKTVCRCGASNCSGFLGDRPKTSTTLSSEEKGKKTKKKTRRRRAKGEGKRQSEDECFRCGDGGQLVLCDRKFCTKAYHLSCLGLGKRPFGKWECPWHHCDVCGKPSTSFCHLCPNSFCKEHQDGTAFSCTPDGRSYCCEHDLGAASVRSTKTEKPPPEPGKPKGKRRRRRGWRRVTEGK

T2: beta-catenin
T2 chain: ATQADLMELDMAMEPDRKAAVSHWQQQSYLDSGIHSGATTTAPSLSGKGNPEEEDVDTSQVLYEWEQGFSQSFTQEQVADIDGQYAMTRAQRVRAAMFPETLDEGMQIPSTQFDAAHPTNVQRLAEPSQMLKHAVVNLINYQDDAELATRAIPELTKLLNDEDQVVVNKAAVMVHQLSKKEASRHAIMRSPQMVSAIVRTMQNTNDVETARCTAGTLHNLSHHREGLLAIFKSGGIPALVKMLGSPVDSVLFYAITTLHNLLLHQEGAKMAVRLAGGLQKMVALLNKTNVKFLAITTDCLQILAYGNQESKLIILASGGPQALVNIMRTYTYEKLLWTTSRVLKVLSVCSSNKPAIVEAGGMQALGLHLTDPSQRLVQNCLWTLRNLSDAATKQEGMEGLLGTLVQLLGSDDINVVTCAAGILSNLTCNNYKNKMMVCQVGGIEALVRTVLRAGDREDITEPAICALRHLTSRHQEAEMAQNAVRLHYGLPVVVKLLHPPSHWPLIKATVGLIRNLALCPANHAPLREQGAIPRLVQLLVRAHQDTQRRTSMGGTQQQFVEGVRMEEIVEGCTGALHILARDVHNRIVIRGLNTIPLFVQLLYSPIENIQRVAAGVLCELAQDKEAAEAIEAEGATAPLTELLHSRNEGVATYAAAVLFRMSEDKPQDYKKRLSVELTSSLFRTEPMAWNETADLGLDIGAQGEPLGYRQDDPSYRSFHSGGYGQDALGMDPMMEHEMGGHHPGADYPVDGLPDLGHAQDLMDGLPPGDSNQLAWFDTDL


Experiments:
[1] = target: T1, 3×FLAG-WHSC1 (Wolf-Hirschhorn syndrome …); assay: anti-HA immunoprecipitation from nuclear and cytoplasmic fractions of 293T cells co-transfected with HA-beta-catenin and 3×FLAG-WHSC1, then immunoblot
Method: [FIG. 5B-D](B) Silver staining pattern of interacting proteins with WHSC1. pCAGGS-n3FH-WHSC1 vectors were transfected into 293T cells. After 48 h, interacting protein partners of WHSC1 were enriched by anti-FLAG immunoprecipitation, separated by SDS-PAGE and silver stained. The different bands compared with a control lane were cut out and identified by mass spectrometry. Western blot was performed to confirm the expression of FLAG-WHSC1 using anti-FLAG antibody. (C) Immunoprecipitants from lysates of 293T cells using anti-FLAG M2 agarose (SIGMA) were immunoblotted with anti-FLAG (WHSC1), IQGAP1, TIAM1, AKT2 and beta-catenin antibodies. (D). HA-beta-catenin and 3×FLAG-WHSC1 vectores were transfected into 293T cells, and cell lysates were fractionated by NE-PER nuclear and cytoplasmic ex-traction kit (Thermo Sciecntific). Immunoprecipitants from fractionated lysates using anti-HA agarose (SIGMA) were immunoblotted with anti-FLAG and HA antibodies. UHRF1 was used as a marker of a nuclear protein, and Rho A was used a marker of a cytoplasmic protein.

beta-catenin = target: T2, beta-catenin

| binding result [1] | Binder | in vitro methyltransferase assay (beta-catenin) |
| --- | --- | --- |
| binds | HA-beta-catenin (other, Co-transfected with 3×FLAG-WHSC1 into 293T cells and precipitated with anti-HA agarose from nuclear and cytoplasmic fractions; also called HA-tagged beta-catenin; not shown: HA tag) MATQADLMELDMAMEPDRKAAVSHWQQQSYLDSGIHSGATTTAPSLSGKGNPEEEDVDTSQVLYEWEQGFSQSFTQEQVADIDGQYAMTRAQRVRAAMFPETLDEGMQIPSTQFDAAHPTNVQRLAEPSQMLKHAVVNLINYQDDAELATRAIPELTKLLNDEDQVVVNKAAVMVHQLSKKEASRHAIMRSPQMVSAIVRTMQNTNDVETARCTAGTLHNLSHHREGLLAIFKSGGIPALVKMLGSPVDSVLFYAITTLHNLLLHQEGAKMAVRLAGGLQKMVALLNKTNVKFLAITTDCLQILAYGNQESKLIILASGGPQALVNIMRTYTYEKLLWTTSRVLKVLSVCSSNKPAIVEAGGMQALGLHLTDPSQRLVQNCLWTLRNLSDAATKQEGMEGLLGTLVQLLGSDDINVVTCAAGILSNLTCNNYKNKMMVCQVGGIEALVRTVLRAGDREDITEPAICALRHLTSRHQEAEMAQNAVRLHYGLPVVVKLLHPPSHWPLIKATVGLIRNLALCPANHAPLREQGAIPRLVQLLVRAHQDTQRRTSMGGTQQQFVEGVRMEEIVEGCTGALHILARDVHNRIVIRGLNTIPLFVQLLYSPIENIQRVAAGVLCELAQDKEAAEAIEAEGATAPLTELLHSRNEGVATYAAAVLFRMSEDKPQDYKKRLSVELTSSLFRTEPMAWNETADLGLDIGAQGEPLGYRQDDPSYRSFHSGGYGQDALGMDPMMEHEMGGHHPGADYPVDGLPDLGHAQDLMDGLPPGDSNQLAWFDTDL |  |
|  | WHSC1 (expressed from the pCAGGS-WHSC1 vector) (protein) MEFSIKQSPLSVQSVVKCIKMKQAPEILGSANGKTPSCEVNRECSVFLSKAQLSSSLQEGVMQKFNGHDALPFIPADKLKDLTSRVFNGEPGAHDAKLRFESQEMKGIGTPPNTTPIKNGSPEIKLKITKTYMNGKPLFESSICGDSAADVSQSEENGQKPENKARRNRKRSIKYDSLLEQGLVEAALVSKISSPSDKKIPAKKESCPNTGRDKDHLLKYNVGDLVWSKVSGYPWWPCMVSADPLLHSYTKLKGQKKSARQYHVQFFGDAPERAWIFEKSLVAFEGEGQFEKLCQESAKQAPTKAEKIKLLKPISGKLRAQWEMGIVQAEEAASMSVEERKAKFTFLYVGDQLHLNPQVAKEAGIAAESLGEMAESSGVSEEAAENPKSVREECIPMKRRRRAKLCSSAETLESHPDIGKSTPQKTAEADPRRGVGSPPGRKKTTVSMPRSRKGDAASQFLVFCQKHRDEVVAEHPDASGEEIEELLRSQWSLLSEKQRARYNTKFALVAPVQAEEDSGNVNGKKRNHTKRIQDPTEDAEAEDTPRKRLRTDKHSLRKRDTITDKTARTSSYKAMEAASSLKSQAATKNLSDACKPLKKRNRASTAASSALGFSKSSSPSASLTENEVSDSPGDEPSESPYESADETQTEVSVSSKKSERGVTAKKEYVCQLCEKPGSLLLCEGPCCGAFHLACLGLSRRPEGRFTCSECASGIHSCFVCKESKTDVKRCVVTQCGKFYHEACVKKYPLTVFESRGFRCPLHSCVSCHASNPSNPRPSKGKMMRCVRCPVAYHSGDACLAAGCSVIASNSIICTAHFTARKGKRHHAHVNVSWCFVCSKGGSLLCCESCPAAFHPDCLNIEMPDGSWFCNDCRAGKKLHFQDIIWVKLGNYRWWPAEVCHPKNVPPNIQKMKHEIGEFPVFFFGSKDYYWTHQARVFPYMEGDRGSRYQGVRGIGRVFKNALQEAEARFREIKLQREARETQESERKPPPYKHIKVNKPYGKVQIYTADISEIPKCNCKPTDENPCGFDSECLNRMLMFECHPQVCPAGEFCQNQCFTKRQYPETKIIKTDGKGWGLVAKRDIRKGEFVNEYVGELIDEEECMARIKHAHENDITHFYMLTIDKDRIIDAGPKGNYSRFMNHSCQPNCETLKWTVNGDTRVGLFAVCDIPAGTELTFNYNLDCLGNEKTVCRCGASNCSGFLGDRPKTSTTLSSEEKGKKTKKKTRRRRAKGEGKRQSEDECFRCGDGGQLVLCDRKFCTKAYHLSCLGLGKRPFGKWECPWHHCDVCGKPSTSFCHLCPNSFCKEHQDGTAFSCTPDGRSYCCEHDLGAASVRSTKTEKPPPEPGKPKGKRRRRRGWRRVTEGK | no positive signals were observed (data not shown) |
